Our source for the amyloid nucleation score values is the supplement of paper PMC12042874.

± gives the uncertainty stated by the source.

This data set in a line: amyloid nucleation score (Sup35N fusion, yeast selection) (log enrichment); library NNK3; higher = more nucleation; inactive = no reads after selection. The method, boiled down: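 Nucleation score: DiMSum log enrichment of output over input reads, centred on the mode score of non-aggregating sequences. Only sequences with at least 100 input reads were kept. Reads came from Illumina sequencing of plasmid inserts before and after 7 days of growth at 30°C without adenine and uracil, in psi-negative yeast expressing Sup35N fused to peptides of 20 random codons after 24 hours of induction with 100 μM copper sulfate.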
As to VWGMMFNMCYRELCLAMTLF, the amyloid nucleation score result is “inactive”.
With VWILCNRPKRRMIYLTQCRM the entry was “inactive”; with VWKMRDTKHMGLLWLLWFIE, “inactive”; with VWLRGDVLGMTLHGCSIVTR, “inactive”.
For VWNFPNILCFGWIFRA the value was 1.64 ± 0.093.
In the case of VWVFYWDKLRKF, the amyloid nucleation score entry was “inactive”.
The substance VWVIVKTNLLLVAGQGGAFG came in with an amyloid nucleation score of 0.693 ± 0.15.
On to VWVLGQLWFF, for which the amyloid nucleation score entry was “inactive”.
For the substance VWVLSA, the amyloid nucleation score entry is “inactive”.
With VWVTFMRAVMTLELCLERMR the entry was “inactive”; with VWVTVRCLNYRPSYMPYRTR, 0.651 ± 0.32.
Regarding VYAEKMMVSSHLCGLRRRFK, the amyloid nucleation score result was “inactive”.
For VYCLRWKLYMLNEVS the value was “inactive”.
Take VYLWKYRPQYPRVA: the amyloid nucleation score entry was “inactive”.
As for VYMLYQFSCPGVDNWVCTES, the amyloid nucleation score result is “inactive”.
Regarding VYNLVDIESEPKVVFNGLFL, the amyloid nucleation score result is “inactive”.
In the case of VYNRVHNCGMKVANYDTRDK, the amyloid nucleation score result was “inactive”.
Consider VYQSTSKF, for which the amyloid nucleation score result was “inactive”.
On to VYRWVC, for which the amyloid nucleation score entry is “inactive”.
As to VYSFTAKHRYSWFVCNDGVK, the amyloid nucleation score entry is “inactive”.
For VYSGESNQIYIMNWPVTSKQ, the amyloid nucleation score came out at 0.062 ± 0.59.
With VYSTSDAEVIVSVSRRGDFA, the amyloid nucleation score entry was “inactive”.
Take VYVAYALFRRD: the amyloid nucleation score was -0.333 ± 0.9.
Take VYWHVWVALSCFMPANIGVV: the amyloid nucleation score entry is “inactive”.
Regarding VYWTEWTCMDIDGIQFLVNV, the amyloid nucleation score entry was “inactive”.
WAFHFGCCNDGMVR: the amyloid nucleation score entry is “inactive”.
For WAIWAYRTLVESMWGTKIGK the value was “inactive”; for WANMQETFWRMWTRPVLTCG, “inactive”; for WAPACYTDSCVMIGGEPYRT, “inactive”.
Consider WAQLRSTWTSSKAYWLTA, for which the amyloid nucleation score entry is “inactive”.
On to WCFCGWMYIISFLSYKKHIM, for which the amyloid nucleation score entry was “inactive”.
For WCQCRKLFWVYAHGEHFSSC, the amyloid nucleation score was found to be 1.09 ± 0.12.
The substance WCSSWSRILTQVACVRHRKW came in with an amyloid nucleation score of 0.926 ± 0.14.
WDAPMSNVDRL: the amyloid nucleation score entry was “inactive”.
WDCVNSAHWVLDMFSNSYVS: the amyloid nucleation score result was “inactive”.
For WDHTA the value was “inactive”; for WDNWSTIRWTVYALSRKSAR, “inactive”.
Regarding WEGYT, the amyloid nucleation score result was “inactive”.
Take WENCKFWRTLPISVHEGHLD: the amyloid nucleation score entry is “inactive”.
WFFILD: the amyloid nucleation score entry was “inactive”.
Turning to WFMRFTLSLVTGLVNGSAWS, the amyloid nucleation score entry was “inactive”.
For WFVSSWKNSHLKCGL, the amyloid nucleation score result is “inactive”.
As for WFYMSRDGYEAVKRLTKLGK, the amyloid nucleation score entry is “inactive”.
Regarding WFYVDLFCGWTRDVNAASCL, the amyloid nucleation score result is “inactive”.
For WGFVW the value was “inactive”; for WGLGAINIDMRRRLDPRCKR, 0.312 ± 0.32.
Regarding WGRGNAAMYGVFRSGNLLVI, the amyloid nucleation score result was “inactive”.
With WGSRHKIVCELGLPFYVLEG the entry was “inactive”.
In turn, WHKKLGYTSFNRKLGFMASG had an amyloid nucleation score of 0.101 ± 0.45.
For WHMWVLKYIFAGLVHSSPWG the value was “inactive”.
WIFRFAYVVHDAWFSENRYP: the amyloid nucleation score entry was “inactive”.
With WIKVDTPFEGFVRYAIDSGV the entry was “inactive”; with WILFCKNGAVTNLLVWECLC, “inactive”; with WIVVENW, “inactive”.
On to WKEVGHGRSASPSALK, for which the amyloid nucleation score entry is “inactive”.
On to WKRKRRLRELGITKVILRVL, for which the amyloid nucleation score result was “inactive”.
Consider WLCCNKTETPQSTRRWQEDD, for which the amyloid nucleation score entry is “inactive”.
Turning to WLCPYARFIRNRSLLFCMFW, the amyloid nucleation score result was “inactive”.
WLDRVY: the amyloid nucleation score result was “inactive”.
For the substance WLFRRVGMVTHAWMYWFKSR, the amyloid nucleation score result is “inactive”.
Turning to WLFYLT, the amyloid nucleation score entry is “inactive”.
As to WLGPYVLHSSAGSGMVDNGT, the amyloid nucleation score entry is “inactive”.
With WLHRTKLWPYFYVKLFPRDK the entry was “inactive”; with WLIKYPGYW, “inactive”.
Take WLSFFRWR: the amyloid nucleation score result was “inactive”.
Substance WLSYLLNG yielded an amyloid nucleation score of 1.91 ± 0.096.
Turning to WLVRMN, the amyloid nucleation score entry is “inactive”.
Take WLVYVVLRM: the amyloid nucleation score result is “inactive”.
With WLWDVDDYGNPLWVRHASVA, the amyloid nucleation score entry was “inactive”.
In the case of WMDRLFVSVTAVWRQPDVGI, the amyloid nucleation score turned out to be 1.42 ± 0.11.
Turning to WMFLDTSGDIMPRGLTDYLE, the amyloid nucleation score result is “inactive”.
For WMRVSCDTRGYSSFQAY the value was -0.538 ± 0.75; for WMYHMHENYN, 1.18 ± 0.1.
On to WNCGSPPR, for which the amyloid nucleation score result was “inactive”.
In the case of WNESAGGFRYFPEDAKCDRA, the amyloid nucleation score entry was “inactive”.
On to WNFNRVYHFLTIEMF, for which the amyloid nucleation score result is “inactive”.
WNHLDERANELCCN: the amyloid nucleation score result is “inactive”.
For WNKGPQTQ the value was “inactive”; for WNLLWLLFFLCLCHCGIMWK, “inactive”; for WNMIFTQPNNQPIVVRDFVD, “inactive”.
For WNVLPATMMRFIRDMTGH, the amyloid nucleation score entry is “inactive”.
As for WPANGMSRLVNRL, the amyloid nucleation score entry is “inactive”.
Turning to WPLYGLDWNPLGFNLRWYKF, the amyloid nucleation score result was “inactive”.
Turning to WPMMATLQYHDLLLAFLFRK, the amyloid nucleation score result was “inactive”.
As for WQICSGA, the amyloid nucleation score result was “inactive”.
For WQLEKIDDDYLRVTVDEPSE the value was “inactive”.
As to WQTMPGVRDGCAECEIYWG, the amyloid nucleation score result was “inactive”.
On to WQTTDRLFSVKKSALLVGFC, for which the amyloid nucleation score result is “inactive”.
For WQVTCDFTFNLRFLFGFGDC the value was 0.617 ± 0.2; for WREAICLLICTIITVPWVNW, “inactive”; for WRFQQQAFRYNWPWVILLLV, “inactive”.
In the case of WRSASGVD, the amyloid nucleation score result was “inactive”.
As to WRVHHFGWAGEY, the amyloid nucleation score entry is “inactive”.
For WRYWDSFFL the value was “inactive”; for WSCNISYTLLSMGRRLYSRR, “inactive”; for WSDHMMRALERLPECINKLL, “inactive”.
For WSGCMWSCARGYGSFPSGPL the value was “inactive”; for WSIRYVLICIGVSKIVCRPL, “inactive”; for WSISSECGERVFRVRTCH, -0.548 ± 1.
For WSKHVCLFENSKSPHFSEDS the value was “inactive”; for WSLCGDVRTQHINHVSVQVS, “inactive”.
On to WSLNWLMTFGLIYRQFSHLY, for which the amyloid nucleation score entry was “inactive”.
As for WSPKTLLM, the amyloid nucleation score entry is “inactive”.
Turning to WSRSSV, the amyloid nucleation score entry was “inactive”.
For WSSFPFCSRVYVQTWIDLTN the value was 1.52 ± 0.14.
Regarding WSVITT, the amyloid nucleation score entry is “inactive”.
Consider WSYHATTPHLRRYRLERSSN, for which the amyloid nucleation score result is “inactive”.
For WTIAVMVSVGKYMTGTAT, the amyloid nucleation score result is “inactive”.
Consider WTRMCSSVRTVR, for which the amyloid nucleation score entry was “inactive”.
With WTVGCREWLSLCCSAKDTDA the entry was “inactive”; with WVCMVNSRRSCIRNS, 0.381 ± 0.75; with WVGLVPYPMVAQEVFNHQD, “inactive”.
For WVLLKSWQNCLLGELVSEVQ, the amyloid nucleation score result is “inactive”.
For WVPAGCKSVMVGGAG the value was “inactive”.
Consider WVQPSYRPSCVLYRSNNNNR, for which the amyloid nucleation score result was “inactive”.
In turn, WVTIESNLCIVSFNRSRSQK displayed an amyloid nucleation score of 2.66 ± 0.075.
For the substance WWHVIMYTGHKCNLSCDSVG, the amyloid nucleation score entry is “inactive”.
Consider WWRDGDIRCKTSLNLGKRSF, for which the amyloid nucleation score result is “inactive”.
For WYALYAKYASTPGFCACLRG, the amyloid nucleation score entry was “inactive”.
With WYCVAEYGHFKCPSRKYVFG the entry was “inactive”; with WYFPTQ, “inactive”.
For the substance WYGVVDVDW, the amyloid nucleation score result is “inactive”.
For WYSNLMCTWISDDKTWQRIR, the amyloid nucleation score result was “inactive”.
Regarding WYTVRSKYANHVNDRHSRRW, the amyloid nucleation score was -0.507 ± 0.98.
With WYWSSNPSGTDVGIDGVRIS, the amyloid nucleation score result was “inactive”.
With YAETPRFIRFY the figure was -0.137 ± 0.78; with YAGQDEFFMVTVYIKPNDLC, 1.85 ± 0.085.
With YAPFWS the entry was “inactive”.
In the case of YASSCDVKLMQSSPLAYEVD, the amyloid nucleation score entry was “inactive”.
Consider YATACGMILQKVVGKLTLLA, for which the amyloid nucleation score is -0.395 ± 0.46.
As to YCCIFRRFNGKNFFSCRG, the amyloid nucleation score result was “inactive”.
